US20150079112A1 (SAMSUNG ELECTRONICS, published 2015)

B2: FLAG-tagged hAng2 (ligand)
chain: YNNFRKSMDSIGKKQYQVQHGSCSYTFLLPEMDNCRSSSSPYVSNAVQRDAPLEYDDSVQRLQVLENIMENNTQWLMKLENYIQDNMKKEMVEIQQNAVQNQTAVMIEIGTNLLNQTAEQTRKLTDVEAQVLNQTTRLELQLLEHSLSTNKLEKQILDQTSEINKLQDKNSFLEKKVLAMEDKHIIQLQSIKEEKDQLQVLVSKQNSIIEELEKKIVTATVNNSVLQKQQHDLMETVNNLLTMMSTSNSAKDPTVAKEEQISFRDCAEVFKSGHTTNGIYTLTFPNSTEEIKAYCDMEAGGGGWTIIQRREDGSVDFQRTWKEYKVGFGNPSGEYWLGNEFVSQLTNQQRYVLKIHLKDWEGNEAYSLYEHFYLSSEELNYRIHLKGLTGTAGKISSISQPGNDFSTKDGDNDKCICKCSQMLTGGWWFDACGPSNLNGMYYPQRQNTNKFNGIKWYYWKGSGYSLKATTMMIRPADF
notes: not shown: FLAG tag

Assays:
FLAG-tagged hAng2 = biological target: B2; experiment: competition ELISA: antibody titrated with FLAG-tagged hAng2 (400 ng/ml) on coated hTie2-Fc, bound Ang2 detected with anti-FLAG-HRP; blocked ligand pair Ang2-Tie2
Method: (§1) More specifically, MaxiSorp™ flat-bottom plate (Nunc) of 96-well was coated with hTie2-Fc (R&D Systems) which is a protein bound with 4 ug (microgram)/ml of Fc of human IgG1. After that, the plate was washed five times with 0.05% (v/v) Tween-20-containing PBS (phosphate buffer saline) and then blocked with 1% (v/v) BSA (bovine serum albumin; Sigma)-containing PBS at a room temperature for 2 hour.
For Ang2:Tie2 competition ELISA, each anti-Ang2 antibody obtained in Example 2 was placed at various concentrations of 400 nM to 0.001 nM into each well coated with the hTie-2/Fc fusion protein along with 1% (v/v) BSA and 400 ng/ml of a FLAG-tagged hAng2 and then, the plate was allowed to react at a room temperature for 2 hours and washed five times with PBST. After that, an anti-FLAG antibody (Sigma) conjugated with HRP diluted in 1% (v/v) BSA-containing PBS at a ratio of 1:5,000 (v/v) was added in an amount of 100 ul (microliter) to each well to react at a room temperature for 1 hour and then, the plate was washed five times with PBST. Lastly, 100 ul (microliter) of TMB substrate (Cell Signaling) was added to each well of the plate to induce color development for 3 min. and then, the reaction was ceased by the addition of 100 ul of Stop solution (Cell Signaling) and OD450 values were measured on a plate reader (Molecular Devices). […]

hTie2-Fc (R&D Systems) [1] = biological target: T1, hTie2-Fc (R&D Systems) (human, UniProt Q02763 23-745); experiment: competition ELISA: FLAG-tagged hAng2 (400 ng/ml) bound to coated hTie2-Fc in the presence of titrated 10D6, detected with anti-FLAG-HRP
T1 construct: also called hTie-2/Fc fusion protein; not shown: Fc of human IgG1
T1 sequence (Q02763 23-745 limits assumed): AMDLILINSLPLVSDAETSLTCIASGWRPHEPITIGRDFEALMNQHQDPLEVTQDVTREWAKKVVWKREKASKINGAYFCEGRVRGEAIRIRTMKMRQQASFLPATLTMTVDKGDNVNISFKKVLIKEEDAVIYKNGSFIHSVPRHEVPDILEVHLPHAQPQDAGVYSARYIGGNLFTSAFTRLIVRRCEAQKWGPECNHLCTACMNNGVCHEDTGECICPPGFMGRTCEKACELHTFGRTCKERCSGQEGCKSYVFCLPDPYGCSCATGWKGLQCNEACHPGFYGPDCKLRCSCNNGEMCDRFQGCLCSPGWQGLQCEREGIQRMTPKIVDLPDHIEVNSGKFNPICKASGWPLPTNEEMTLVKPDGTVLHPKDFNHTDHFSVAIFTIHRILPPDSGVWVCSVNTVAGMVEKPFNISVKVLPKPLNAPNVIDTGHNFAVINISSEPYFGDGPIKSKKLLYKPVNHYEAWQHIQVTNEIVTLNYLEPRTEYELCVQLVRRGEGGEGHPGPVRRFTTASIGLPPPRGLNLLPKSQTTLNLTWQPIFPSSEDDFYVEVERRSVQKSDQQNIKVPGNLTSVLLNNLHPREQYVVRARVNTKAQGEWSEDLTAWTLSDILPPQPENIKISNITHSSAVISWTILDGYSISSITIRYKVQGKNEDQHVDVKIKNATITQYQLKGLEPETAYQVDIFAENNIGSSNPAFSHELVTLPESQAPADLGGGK
Method: as §1
For Ang2:Tie2 competition ELISA, each anti-Ang2 antibody obtained in Example 2 was placed at various concentrations of 400 nM to 0.001 nM into each well coated with the hTie-2/Fc fusion protein along with 1% (v/v) BSA and 400 ng/ml of a FLAG-tagged hAng2 and then, the plate was allowed to react at a room temperature for 2 hours and washed five times with PBST. After that, an anti-FLAG antibody (Sigma) conjugated with HRP diluted in 1% (v/v) BSA-containing PBS at a ratio of 1:5,000 (v/v) was added in an amount of 100 ul (microliter) to each well to react at a room temperature for 1 hour and then, the plate was washed five times with PBST. Lastly, 100 ul (microliter) of TMB substrate (Cell Signaling) was added to each well of the plate to induce color development for 3 min. and then, the reaction was ceased by the addition of 100 ul of Stop solution (Cell Signaling) and OD450 values were measured on a plate reader (Molecular Devices).

hTie2-Fc (R&D Systems) [2] = biological target: T1, hTie2-Fc (R&D Systems); experiment: ELISA, coated Tie2-Fc 4 ug/ml, Ang2 0.25 ug/ml and 10D6 2 ug/ml added, anti-mouse IgG-HRP, OD450
Method: A 96-well MaxiSorp™ flat-bottom plate (Nunc) was coated with 4 ug/ml of Tie2-Fc (R&D systems) or BSA (Sigma). Then, the plate was washed five times with 0.05% (v/v) Tween-20-containing PBS (Phosphate Buffer Saline) and blocked with 1% (v/v) BSA (Bovine serum albumin; Sigma)-containing PBS at a room temperature for 2 hours. 0.25 ug/ml of Ang2 and 2 ug/ml of antibody 10D6 were added to each well of the plate, which was allowed to react at a room temperature for 2 hours and then washed five times with PBST. After that, an anti-mouse IgG antibody (Sigma) conjugated with HRP diluted in 1% (v/v) BSA-containing PBS at a ratio of 1:5,000 (v/v) was added in an amount of 100 ul to each well to react at a room temperature for 1 hour and then, the plate was washed five times with PBST. Lastly, 100 ul (microliter) of TMB substrate (Cell Signaling) was added to each well of the plate to induce color development for 3 min. and then, the reaction was ceased by the addition of 100 ul of Stop solution (Cell Signaling) and OD450 values were measured on a plate reader (Molecular Devices).

B1: 4H10 (antibody, V domains shown)
VH: EVQLLESGGGLVQPGGSLRLSCAASGFTFSSYDMSWVRQAPGKGLEWVSLISPDSSSIYYADSVKGRFTISRDNSKNTLYLQMNSLRAEDTAVYYCAKDLISFWRGGFDYWGQGTLVTVSS
VL: QSVLTQPPSASGTPGQRVTISCSGSSSNIGSNYVNWYQQLPGTAPKLLIYADSNRPSGVPDRFSGSKSGTSASLAISGLRSEDEADYYCGSWDYSLSGYVFGGGTKLTVLG
notes: also called antibody 4H10
IC50 (read off the curve) (FLAG-tagged hAng2): ~0.2 nM

B2
binding result (hTie2-Fc (R&D Systems) [1]): binds

B3: Ang2 protein (R&D systems) (ligand)
chain: YNNFRKSMDSIGKKQYQVQHGSCSYTFLLPEMDNCRSSSSPYVSNAVQRDAPLEYDDSVQRLQVLENIMENNTQWLMKLENYIQDNMKKEMVEIQQNAVQNQTAVMIEIGTNLLNQTAEQTRKLTDVEAQVLNQTTRLELQLLEHSLSTNKLEKQILDQTSEINKLQDKNSFLEKKVLAMEDKHIIQLQSIKEEKDQLQVLVSKQNSIIEELEKKIVTATVNNSVLQKQQHDLMETVNNLLTMMSTSNSAKDPTVAKEEQISFRDCAEVFKSGHTTNGIYTLTFPNSTEEIKAYCDMEAGGGGWTIIQRREDGSVDFQRTWKEYKVGFGNPSGEYWLGNEFVSQLTNQQRYVLKIHLKDWEGNEAYSLYEHFYLSSEELNYRIHLKGLTGTAGKISSISQPGNDFSTKDGDNDKCICKCSQMLTGGWWFDACGPSNLNGMYYPQRQNTNKFNGIKWYYWKGSGYSLKATTMMIRPADF
notes: It may be the same product as the C-His hAng2 of the SPR; also called human Ang2 protein (R&D systems; 623-AN-025/CF)
binding result (hTie2-Fc (R&D Systems) [2]): binds
